In experiment [1] the target is T1, full-length human HER2 receptor on cells (human, UniProt P04626 23-1255). Kind of experiment: cell-based or functional assay.
Experiment [2] has as its target T1, full-length human HER2 receptor on cells. In words: flow cytometry on JIMT-1 cells, Alexa Fluor 647 goat anti-human IgG detection. As for the experimental part: The cell surface binding of the HER2 antibodies to JIMT-1 cells were evaluated using a Macsquant flow cytometer (Miltenyi Biotec, Bergisch Gladbach, Germany). JIMT-1 cells, grown overnight to approximately 90% confluent cultures in DMEM media (ATCC, Manassas, Va.) with 10% FBS (Gibco®, Life Technologies, Grand Island, N.Y.), were released from the plate surface by treatment with Accutase cell detachment solution (Innovative Cell Technologies, San Diego, Calif.). The detached cells were washed once with ice cold media containing 6% goat serum and resuspended in the same media. 100,000 cells were aliquoted per well of a V-bottom, 96-well plate and incubated with a range of HER2 antibody concentrations (0.05-100 nM) in 150 μl DMEM with 6% goat serum on ice for 3 hours. […] The cells were washed once with ice cold PBS (Gibco®, Life Technologies, Cat.# 10010049) and suspended in 200 μl of ice cold PBS with 1% paraformaldehyde. The amount of fluorescence bound per cell was determined by running 5000 cells for each treatment on the flow cytometer. The median fluorescence value for each treatment was graphed, and the dissociation constant, Kd, was calculated for each antibody with Graphpad Prism software by non-linear regression using the single site, specific binding model.
(In flow cytometry, cells or beads pass a laser one at a time.)

The target is the same in experiment [3]. Kind of experiment: flow cytometry competition on JIMT-1 cells: unlabeled XMT 1519 titrated against 30 nM Alexa Fluor 647-labeled XMT 1519.
In experiment [4] the target is recombinant human HER2 extracellular domain (amino acids 23-652, Acro Biosystems Cat.# HE2-H5225) (human, UniProt P04626 23-652). In words: ELISA, HER2 extracellular domain coated on plate, one site specific binding fit. On the technique in general: In an ELISA, binding on a coated surface is turned into a signal by an enzyme label.
Experimental: (§1) The affinity of the antibodies for recombinant human and cynomolgus monkey HER2 was determined by an ELISA assay. […] The wells were washed 4 times with TTBS (50 mM Tris-HCl, pH 7.4, 150 mM NaCl, and 0.05% Tween 20). The wells were blocked by incubation with 50 μl of TTBS containing 5% bovine serum albumin for 1 hr. […] Unbound test antibodies were removed with TTBS washes (4×). […] Unbound secondary antibody was removed by 4 TTBS washes. The HRP substrate, TMB Bethyl Laboratories#E102) was added to each well and incubated until a yellow color was visible. The reaction was stopped by the addition of 50 μl of 0.2 N sulfuric acid. […] Kd was determined by non-linear regression using the one site, specific binding model.
Experiment [5] deals with T2, recombinant cynomolgus monkey HER2 extracellular domain (amino acids 1-652, Sino Biological Cat.# 90295-CO8H) (cynomolgus monkey, UniProt A0A2K5WUT7 1-622).
T2 construct: range 1-652; Bought protein; the stated range 1-652 includes the signal peptide of the construct
The description is as above.
Experimental: as §1

The target of experiment [6] is T1, full-length human HER2 receptor on cells. Kind of experiment: cell-based or functional assay. This is another data set of the same source.
Experiment [7] has the same target. In words: flow cytometry competition on JIMT-1 cells: unlabeled XMT 1518 titrated against 30 nM Alexa Fluor 647-labeled XMT 1519.

Changes are numbered by the printed parent chain.

B1: XMT 1519 antibody (antibody, human IgG1, kappa, V domains shown)
VH: EVQLVESGGGLVQPGGSLRLSCAASGFTFSSYSMNWVRQAPGKGLEWVSYISSSSSTIYYADSVKGRFTISRDNAKNSLYLQMNSLRAEDTAVYYCARGGHGYFDLWGRGTLVTVSS
VL: not shown
In the case of B1, in experiment [1], the “AKT phosphorylation in BT474 cells after 4 h antibody (western)” value was 21 % of untreated cells and the “HER3 phosphorylation (Tyr 1289) in BT474 cells after 4 h antibody (western)” value was 71 % of untreated cells. The EC50 (read off the curve) – broadly, the midpoint of the concentration-response curve – in experiment [2] was around 1 nM. For the same molecule, in experiment [3], the “IC50 (read off the curve)” value was around 5 nM.

B2: Example 16H, XMT 1519-(EG2-MI-(10 kDa PHF-BA-(AF-HPA-Ala))) (antibody, human IgG1, kappa, V domains shown)
VH: B1 VH
VL: not shown
modifications: polymer-drug scaffolds on cysteine thiols possible; positions not given; EG2-MI-(10 kDa PHF-BA-(AF-HPA-Ala)) polymer-drug scaffolds joined to cysteine thiols of the partially reduced antibody; positions not given; DAR about 11.8:1 to about 17.5:1
In the case of B2, the Kd in experiment [4] and in experiment [5] was 0.05 nM throughout.

B3: XMT 1520 antibody (antibody, human IgG1, kappa, V domains shown)
VH: B1 VH with S31G, Y32R, S54D, S56R
VL: not shown
B3: in experiment [1], the “AKT phosphorylation in BT474 cells after 4 h antibody (western)” value was 30 % of untreated cells and the “HER3 phosphorylation (Tyr 1289) in BT474 cells after 4 h antibody (western)” value was 76 % of untreated cells. In addition, the “EC50 (read off the curve)” value in experiment [2] was around 1 nM.

B4: XMT 1518 antibody (antibody, human IgG1, kappa, V domains shown)
VH: QVQLVESGGGVVQPGRSLRLSCAASGFTFSSYGMHWVRQAPGKGLEWVAGIWWDGSNEKYADSVKGRFTISRDNSKNTLYLQMNSLRAEDTAVYYCAKEAPYYAKDYMDVWGKGTTVTVSS
VL: EIVLTQSPGTLSLSPGERATLSCRASQSVSSDYLAWYQQKPGQAPRLLIYGASRRATGIPDRFSGSGSGTDFTLTISRLEPEDFAVYYCQQYVSYWTFGGGTKVEIKR
Take B4: the “AKT phosphorylation in MCF7 cells after 4 h antibody” value in experiment [6] was 103 % of untreated cells. Besides, the “IC50 (read off the curve)” value in experiment [7] was around 3 nM.
